Source: US20090298765A1 (Takeda / Millennium, published 2009)
Non-standard residues stand in square brackets, D forms with d. No end group written: not given here. Phe(3,4-Cl2) = N[C@@H](Cc1ccc(Cl)c(Cl)c1)C(=O)O; Phe(3-Cl) = N[C@@H](Cc1cccc(Cl)c1)C(=O)O; Phe(4-Cl) = N[C@@H](Cc1ccc(Cl)cc1)C(=O)O; Phe(4-NH2) = Nc1ccc(C[C@H](N)C(=O)O)cc1; Phe(2-Cl) = N[C@@H](Cc1ccccc1Cl)C(=O)O; 1Nal = N[C@@H](Cc1cccc2ccccc12)C(=O)O; 2Nal = N[C@@H](Cc1ccc2ccccc2c1)C(=O)O; Arg(Me) = CNC(=N)NCCC[C@H](N)C(=O)O; Bta = N[C@@H](Cc1csc2ccccc12)C(=O)O; Cha = N[C@@H](CC1CCCCC1)C(=O)O; azaGly = NNC(=O)O

B1: [D-Tyr1,Nal(1)3,AzaGly7,Arg(Me)9]MS10 (peptide)
peptide: [dY]N[1Nal]NSF[azaGly]L[Arg(Me)]F-NH2
modifications: N-terminus assumed
SMILES: CNC(=N)NCCC[C@H](NC(=O)[C@H](CC(C)C)NC(=O)NNC(=O)[C@H](Cc1ccccc1)NC(=O)[C@H](CO)NC(=O)[C@H](CC(N)=O)NC(=O)[C@H](Cc1cccc2ccccc12)NC(=O)[C@H](CC(N)=O)NC(=O)[C@H](N)Cc1ccc(O)cc1)C(=O)N[C@@H](Cc1ccccc1)C(N)=O
notes: also called Compound No. 245
B2: [D-Tyr1,Ala3,AzaGly7,Arg(Me)9]MS10 (peptide)
peptide: [dY]NANSF[azaGly]L[Arg(Me)]F-NH2
modifications: N-terminus assumed
SMILES: CNC(=N)NCCC[C@H](NC(=O)[C@H](CC(C)C)NC(=O)NNC(=O)[C@H](Cc1ccccc1)NC(=O)[C@H](CO)NC(=O)[C@H](CC(N)=O)NC(=O)[C@H](C)NC(=O)[C@H](CC(N)=O)NC(=O)[C@H](N)Cc1ccc(O)cc1)C(=O)N[C@@H](Cc1ccccc1)C(N)=O
notes: also called Compound No. 235
B3: [D-Tyr1,Phe(3Cl)3,AzaGly7,Arg(Me)9]MS10 (peptide)
peptide: [dY]N[Phe(3-Cl)]NSF[azaGly]L[Arg(Me)]F-NH2
notes: also called Compound No. 248
B4: [D-Tyr1,Phe(2Cl)3,AzaGly7,Arg(Me)9]MS10 (peptide)
peptide: [dY]N[Phe(2-Cl)]NSF[azaGly]L[Arg(Me)]F-NH2
modifications: N-terminus assumed
SMILES: CNC(=N)NCCC[C@H](NC(=O)[C@H](CC(C)C)NC(=O)NNC(=O)[C@H](Cc1ccccc1)NC(=O)[C@H](CO)NC(=O)[C@H](CC(N)=O)NC(=O)[C@H](Cc1ccccc1Cl)NC(=O)[C@H](CC(N)=O)NC(=O)[C@H](N)Cc1ccc(O)cc1)C(=O)N[C@@H](Cc1ccccc1)C(N)=O
notes: also called Compound No. 247
B5: [D-Tyr1,Val3,Arg(Me)9]MS10 (peptide)
peptide: [dY]NVNSFGL[Arg(Me)]F-NH2
modifications: N-terminus assumed
SMILES: CNC(=N)NCCC[C@H](NC(=O)[C@H](CC(C)C)NC(=O)CNC(=O)[C@H](Cc1ccccc1)NC(=O)[C@H](CO)NC(=O)[C@H](CC(N)=O)NC(=O)[C@@H](NC(=O)[C@H](CC(N)=O)NC(=O)[C@H](N)Cc1ccc(O)cc1)C(C)C)C(=O)N[C@@H](Cc1ccccc1)C(N)=O
notes: also called Compound No. 229
B6: [D-Tyr1,Ile3,AzaGly7,Arg(Me)9]MS10 (peptide)
peptide: [dY]NINSF[azaGly]L[Arg(Me)]F-NH2
modifications: N-terminus assumed
SMILES: CC[C@H](C)[C@H](NC(=O)[C@H](CC(N)=O)NC(=O)[C@H](N)Cc1ccc(O)cc1)C(=O)N[C@@H](CC(N)=O)C(=O)N[C@@H](CO)C(=O)N[C@@H](Cc1ccccc1)C(=O)NNC(=O)N[C@@H](CC(C)C)C(=O)N[C@@H](CCCNC(=N)NC)C(=O)N[C@@H](Cc1ccccc1)C(N)=O
notes: also called Compound No. 233
B7: [D-Tyr1,Val3,AzaGly7,Arg(Me)9]MS10 (peptide)
peptide: [dY]NVNSF[azaGly]L[Arg(Me)]F-NH2
modifications: N-terminus assumed
SMILES: CNC(=N)NCCC[C@H](NC(=O)[C@H](CC(C)C)NC(=O)NNC(=O)[C@H](Cc1ccccc1)NC(=O)[C@H](CO)NC(=O)[C@H](CC(N)=O)NC(=O)[C@@H](NC(=O)[C@H](CC(N)=O)NC(=O)[C@H](N)Cc1ccc(O)cc1)C(C)C)C(=O)N[C@@H](Cc1ccccc1)C(N)=O
notes: also called Compound No. 234
B8: [D-Tyr1,Thr3,Arg(Me)9]MS10 (peptide)
peptide: [dY]NTNSFGL[Arg(Me)]F-NH2
modifications: N-terminus assumed
SMILES: CNC(=N)NCCC[C@H](NC(=O)[C@H](CC(C)C)NC(=O)CNC(=O)[C@H](Cc1ccccc1)NC(=O)[C@H](CO)NC(=O)[C@H](CC(N)=O)NC(=O)[C@@H](NC(=O)[C@H](CC(N)=O)NC(=O)[C@H](N)Cc1ccc(O)cc1)[C@@H](C)O)C(=O)N[C@@H](Cc1ccccc1)C(N)=O
notes: also called Compound No. 205
B9: [D-Tyr1,Gln2,Arg(Me)9]MS10 (peptide)
peptide: [dY]QWNSFGL[Arg(Me)]F-NH2
notes: also called Compound No. 214
B10: [D-Tyr1,Phe(4Cl)3,AzaGly7,Arg(Me)9]MS10 (peptide)
peptide: [dY]N[Phe(4-Cl)]NSF[azaGly]L[Arg(Me)]F-NH2
modifications: N-terminus assumed
SMILES: CNC(=N)NCCC[C@H](NC(=O)[C@H](CC(C)C)NC(=O)NNC(=O)[C@H](Cc1ccccc1)NC(=O)[C@H](CO)NC(=O)[C@H](CC(N)=O)NC(=O)[C@H](Cc1ccc(Cl)cc1)NC(=O)[C@H](CC(N)=O)NC(=O)[C@H](N)Cc1ccc(O)cc1)C(=O)N[C@@H](Cc1ccccc1)C(N)=O
notes: also called Compound No. 249
B11: [D-Tyr1,Ala7,Arg(Me)9]MS10 (peptide)
peptide: [dY]NWNSFAL[Arg(Me)]F-NH2
modifications: N-terminus assumed
SMILES: CNC(=N)NCCC[C@H](NC(=O)[C@H](CC(C)C)NC(=O)[C@H](C)NC(=O)[C@H](Cc1ccccc1)NC(=O)[C@H](CO)NC(=O)[C@H](CC(N)=O)NC(=O)[C@H](Cc1c[nH]c2ccccc12)NC(=O)[C@H](CC(N)=O)NC(=O)[C@H](N)Cc1ccc(O)cc1)C(=O)N[C@@H](Cc1ccccc1)C(N)=O
notes: also called Compound No. 204
B12: [D-Tyr1,Phe(4NH2)3,AzaGly7,Arg(Me)9]MS10 (peptide)
peptide: [dY]N[Phe(4-NH2)]NSF[azaGly]L[Arg(Me)]F-NH2
modifications: N-terminus assumed
SMILES: CNC(=N)NCCC[C@H](NC(=O)[C@H](CC(C)C)NC(=O)NNC(=O)[C@H](Cc1ccccc1)NC(=O)[C@H](CO)NC(=O)[C@H](CC(N)=O)NC(=O)[C@H](Cc1ccc(N)cc1)NC(=O)[C@H](CC(N)=O)NC(=O)[C@H](N)Cc1ccc(O)cc1)C(=O)N[C@@H](Cc1ccccc1)C(N)=O
notes: also called Compound No. 250
B13: [D-Tyr1,Thr2,Arg(Me)9]MS10 (peptide)
peptide: [dY]TWNSFGL[Arg(Me)]F-NH2
modifications: N-terminus assumed
SMILES: CNC(=N)NCCC[C@H](NC(=O)[C@H](CC(C)C)NC(=O)CNC(=O)[C@H](Cc1ccccc1)NC(=O)[C@H](CO)NC(=O)[C@H](CC(N)=O)NC(=O)[C@H](Cc1c[nH]c2ccccc12)NC(=O)[C@@H](NC(=O)[C@H](N)Cc1ccc(O)cc1)[C@@H](C)O)C(=O)N[C@@H](Cc1ccccc1)C(N)=O
notes: also called Compound No. 215
B14: [D-Tyr1,Phe3,AzaGly7,Arg(Me)9]MS10 (peptide)
peptide: [dY]NFNSF[azaGly]L[Arg(Me)]F-NH2
notes: also called Compound No. 244
B15: [D-Tyr1,Val8,Arg(Me)9]MS10 (peptide)
peptide: [dY]NWNSFGV[Arg(Me)]F-NH2
notes: also called Compound No. 213
B16: [Phe(3,4Cl2)10]MS10 (peptide)
peptide: YNWNSFGLR[Phe(3,4-Cl2)]-NH2
notes: also called Compound No. 199
B17: des(1)-[D-Tyr2,Thr3,Arg(Me)9]MS10 (peptide)
peptide: [dY]TNSFGL[Arg(Me)]F-NH2
modifications: N-terminus assumed
SMILES: CNC(=N)NCCC[C@H](NC(=O)[C@H](CC(C)C)NC(=O)CNC(=O)[C@H](Cc1ccccc1)NC(=O)[C@H](CO)NC(=O)[C@H](CC(N)=O)NC(=O)[C@@H](NC(=O)[C@H](N)Cc1ccc(O)cc1)[C@@H](C)O)C(=O)N[C@@H](Cc1ccccc1)C(N)=O
notes: also called Compound No. 227
B18: [D-Tyr1,Cha3,6,Arg(Me)9,Trp10]MS10 (peptide)
peptide: [dY]N[Cha]NS[Cha]GL[Arg(Me)]W-NH2
modifications: N-terminus assumed
SMILES: CNC(=N)NCCC[C@H](NC(=O)[C@H](CC(C)C)NC(=O)CNC(=O)[C@H](CC1CCCCC1)NC(=O)[C@H](CO)NC(=O)[C@H](CC(N)=O)NC(=O)[C@H](CC1CCCCC1)NC(=O)[C@H](CC(N)=O)NC(=O)[C@H](N)Cc1ccc(O)cc1)C(=O)N[C@@H](Cc1c[nH]c2ccccc12)C(N)=O
notes: also called Compound No. 182
B19: des(1)-[D-Tyr2,Nal(2)3,AzaGly7,Arg(Me)9]MS10 (peptide)
peptide: [dY][2Nal]NSF[azaGly]L[Arg(Me)]F-NH2
notes: also called Compound No. 255
B20: [D-Tyr1,Nal(2)3,AzaGly7,Arg(Me)9]MS10 (peptide)
peptide: [dY]N[2Nal]NSF[azaGly]L[Arg(Me)]F-NH2
modifications: N-terminus assumed
SMILES: CNC(=N)NCCC[C@H](NC(=O)[C@H](CC(C)C)NC(=O)NNC(=O)[C@H](Cc1ccccc1)NC(=O)[C@H](CO)NC(=O)[C@H](CC(N)=O)NC(=O)[C@H](Cc1ccc2ccccc2c1)NC(=O)[C@H](CC(N)=O)NC(=O)[C@H](N)Cc1ccc(O)cc1)C(=O)N[C@@H](Cc1ccccc1)C(N)=O
notes: also called Compound No. 246
B21: [Ala(3-Bzt)10]MS10 (peptide)
peptide: YNWNSFGLR[Bta]-NH2
modifications: N-terminus assumed
SMILES: CC(C)C[C@H](NC(=O)CNC(=O)[C@H](Cc1ccccc1)NC(=O)[C@H](CO)NC(=O)[C@H](CC(N)=O)NC(=O)[C@H](Cc1c[nH]c2ccccc12)NC(=O)[C@H](CC(N)=O)NC(=O)[C@@H](N)Cc1ccc(O)cc1)C(=O)N[C@@H](CCCNC(=N)N)C(=O)N[C@@H](Cc1csc2ccccc12)C(N)=O
notes: also called Compound No. 189
B22: [D-Tyr1,Cha3,AzaGly7,Arg(Me)9]MS10 (peptide)
peptide: [dY]N[Cha]NSF[azaGly]L[Arg(Me)]F-NH2
modifications: N-terminus assumed
SMILES: CNC(=N)NCCC[C@H](NC(=O)[C@H](CC(C)C)NC(=O)NNC(=O)[C@H](Cc1ccccc1)NC(=O)[C@H](CO)NC(=O)[C@H](CC(N)=O)NC(=O)[C@H](CC1CCCCC1)NC(=O)[C@H](CC(N)=O)NC(=O)[C@H](N)Cc1ccc(O)cc1)C(=O)N[C@@H](Cc1ccccc1)C(N)=O
notes: also called Compound No. 190

Tests used:
[1] = target: T1, human OT7T175 (metastin receptor) (human, UniProt Q969F8 1-398); assay: cell-based or functional assay
T1 sequence (Q969F8 whole entry L364H): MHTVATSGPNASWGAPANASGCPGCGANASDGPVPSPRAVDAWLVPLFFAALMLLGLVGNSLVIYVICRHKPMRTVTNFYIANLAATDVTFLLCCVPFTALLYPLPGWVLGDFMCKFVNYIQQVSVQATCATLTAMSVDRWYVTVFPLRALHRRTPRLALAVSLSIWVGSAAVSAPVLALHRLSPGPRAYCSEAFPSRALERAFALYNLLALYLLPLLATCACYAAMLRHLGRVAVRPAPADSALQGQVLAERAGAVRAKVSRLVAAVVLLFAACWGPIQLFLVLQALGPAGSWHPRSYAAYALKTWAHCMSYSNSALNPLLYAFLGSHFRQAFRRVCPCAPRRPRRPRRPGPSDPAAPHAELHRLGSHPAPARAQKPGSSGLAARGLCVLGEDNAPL

[2] = target: T1, human OT7T175 (metastin receptor); assay: competition with Cy-5 metastin (40-54) on hOT7T175-CHO cells, FMAT

Binder | Ca ion level-increasing activity (FLIPR) [1] | IC50 [2]
B1 | 1 x Metastin (1-54) | 98 nM
B2 | 1 x Metastin (1-54) | 100 nM
B3 | 2 x Metastin (1-54) | 58 nM
B4 | 1 x Metastin (1-54) | 45 nM
B5 | 1 x Metastin (1-54) | 130 nM
B6 | 1 x Metastin (1-54) | 23 nM
B7 | 1 x Metastin (1-54) | 47 nM
B8 | 10 x Metastin (1-54) | 260 nM
B9 | 10 x Metastin (1-54) | 390 nM
B10 | 1 x Metastin (1-54) | 150 nM
B11 | 5 x Metastin (1-54) | 680 nM
B12 | 1 x Metastin (1-54) | 3.7 nM
B13 | 10 x Metastin (1-54) | 250 nM
B14 | 1 x Metastin (1-54) | 77 nM
B15 | 2 x Metastin (1-54) | 190 nM
B16 | 3 x Metastin (1-54) | 470 nM
B17 | 1 x Metastin (1-54) | 48 nM
B18 | 5 x Metastin (1-54) | 98 nM
B19 | 1 x Metastin (1-54) | 33 nM
B20 | 2 x Metastin (1-54) | 7.1 nM
B21 | 10 x Metastin (1-54) | 230 nM
B22 | 10 x Metastin (1-54) | 12 nM
